{"source": "patent US20230192902A1", "about": "“ABCG2 EFFLUX PUMP-CANCER ANTIGEN MULTI-SPECIFIC ANTIBODIES AND COMPOSITIONS, REAGENTS, KITS AND METHODS RELATED THERETO” (Kenjockety Biotechnology, Inc., priority 2020, published 2023)", "molecules": {"B1": {"name": "5D3: anti-ABCG2 antibody 5D3; VH SEQ ID NO:5, VL SEQ ID NO:1; tested with human IgG1 constant regions (antibody, V domains shown)", "VH": "QVQLQESGPGLVKPSQSLSLTCTVTGFSITSDYAWNWIRQFPGKKLEWMGYINFDGGTTYNPSLRGRISITRDTSKNQFFLQLRSVTPEDTATYYCATFYGAKGTLDYWGQGTSVTVSS", "VL": "DIVLTQSPSSFSVSLGDRVTISCKASGYILNRLAWYQQKPGNAPRLLISGATSLETGFPSRFSGTGSGKDYTLSISSLQTEDVGTYYCQQYWSTPWTFGGGTKLEIR", "modifications": "human IgG1 constant regions", "notes": "anti-ABCG2 antibody 5D3; tested with human IgG1 constant regions"}, "B2": {"name": "5D3DDKT14KK5D3: bispecific ABCG2/CD47 antibody: HC and LC from anti-ABCG2 antibody 5D3 and a HC from anti-CD47 antibody 5F9; DD/KK charged pair substitutions (antibody, V domains shown)", "VH 1": "B1 VH", "VH 2": "QVQLVQSGAEVKKPGASVKVSCKASGYTFTNYNMHWVRQAPGQRLEWMGTIYPGNDDTSYNQKFKDRVTITADTSASTAYMELSSLRSEDTAVYYCARGGYRAMDYWGQGTLVTVSS", "VL": "B1 VL"}, "B3": {"name": "5D3hVHv1DDKT14KK5D3hVLv1: bispecific ABCG2/CD47 antibody: humanized 5D3 VH version 1 (DD), 5F9 HC (KK), humanized 5D3 VL version 1 common light chain (antibody, V domains shown)", "VH 1": "EVQLQESGPGLVKPSETLSLTCTVSGFSITSDYAWNWIRQPPGKGLEWMGYINFDGGTTYNPSLRGRITISRDTSKNQFSLKLSSVTAADTAVYYCATFYGAKGTLDYWGQGTLVTVSS", "VH 2": "B2 VH 2", "VL": "DIQLTQSPSSLSASVGDRVTITCKASGYILNRLAWYQQKPGKAPKLLISGATSLETGFPSRFSGSGSGKDYTLTISSLQPEDFATYYCQQYWSTPWTFGGGTKLEIK"}, "B4": {"name": "5D3hVHv2DDKT14KK5D3hVLv1: bispecific ABCG2/CD47 antibody: humanized 5D3 VH version 2 (DD), 5F9 HC (KK), humanized 5D3 VL version 1 common light chain (antibody, V domains shown)", "VH 1": "B3 VH 1 with M49I, I68V", "VH 2": "B2 VH 2", "VL": "B3 VL"}}, "note": "Substitutions are numbered along the chain they refer to."}
{"test_system": "293T_ABCG2_OX cells (293T cells stably transfected to express ABCG2)", "assay": "Topotecan cytotoxicity assay in the presence of antibodies (CellTiter-Glo)", "format": "cell-based, human", "conditions": "FIG. 1; 293T cells overexpressing ABCG2; 72-96 hr; IC50 values only in the figure", "protocol": "Cytotoxicity Assays. The effect of antibodies on topotecan cytotoxicity was evaluated on 293T_ABCG2_OX cells, 293T cells stably transfected to express ABCG2. Cells were plated in 0.05 mL of Assay Media (DMEM +10% FBS) at 5000 cells/well in white, flat bottom 96-well tissue culture plates. Topotecan was prepared at 2X final assay concentration by serial dilution from 200 uM in assay media containing test antibodies or control antibodies at 100 ug/mL (2X final concentration), or Fumitremorgin C (FTC), a small molecule ABCG2 inhibitor at (2X final concentration). An equivalent volume (0.05 mL) of the topotecan/antibody mixture was added to the 293T_ABCG2_OX cells in 96-well plates. The plates were then incubated at 37° C., in 5% CO2. After about 72-96 hr plates were equilibrated to room temperature and cell viability assessed using Promega® CellTiter-Glo® Luminescent Cell Viability Assay according to the manufacturer’s recommended protocol. Luminescence was measured on a Molecular Devices® FlexStation® 3 Multi-Mode Microplate Reader and data analyzed using GraphPad Prism 8.0 software. Half maximal inhibitory concentration (IC50) is the concentration of drug (topotecan or other chemotherapy cytotoxic agent) where the response (cell growth) is reduced by 50%."}
{"molecule": "B1", "susceptibility of cells to topotecan in the presence of the antibody": "increased susceptibility to topotecan"}
{"molecule": "B2", "susceptibility of cells to topotecan in the presence of the antibody": "increased susceptibility to topotecan"}
{"molecule": "B3", "susceptibility of cells to topotecan in the presence of the antibody": "increased susceptibility to topotecan"}
{"molecule": "B4", "susceptibility of cells to topotecan in the presence of the antibody": "increased susceptibility to topotecan"}
